Results published in publication PMC4787811 (Nucleic Acids Research, 2015).

Assays:
[1] = target: the molecule itself; test: negative-stain EM, single particle 3D reconstruction
[2] = target: T1, E1FL (full-length E1) (bovine papillomavirus (BPV-1), UniProt P03116 1-605); test: gel filtration (SEC) and negative stain EM; no nucleotide cofactor; 50 uM E1, E1:DNA 6:1; settings: protein: recombinant; tags: GST fusion, tag cleaved with thrombin and removed; chain copies: 6; single strand
[3] = target: T1, E1FL (full-length E1); test: gel filtration (SEC); no nucleotide cofactor; 50 uM E1, E1:DNA 6:1; settings: protein: recombinant; tags: GST fusion, tag cleaved with thrombin and removed; chain copies: 6; fork: 10 bp duplex, 3' T20 and 5' C10 arms
[4] = target: T1, E1FL (full-length E1); test: gel filtration (SEC) and negative stain EM (20 A); streptavidin (MTS) bound to biotin; settings: protein: recombinant; tags: GST fusion, tag cleaved with thrombin and removed; chain copies: 6; label: 5'-biotin on top strand (dsDNA end); fork: 10 bp duplex, 3' T20 and 5' C10 arms
[5] = target: T1, E1FL (full-length E1); test: gel filtration (SEC) and negative stain EM (20 A); streptavidin (MTS) and anti-digoxigenin Fab bound to labels; settings: protein: recombinant; tags: GST fusion, tag cleaved with thrombin and removed; chain copies: 6; label: 5'-biotin on top strand; 5'-digoxigenin on bottom strand; fork: 10 bp duplex, 3' T20 and 5' C10 arms
[6] = target: T1, E1FL (full-length E1); test: hydroxyl radical footprinting; settings: protein: recombinant; tags: GST fusion, tag cleaved with thrombin and removed; chain copies: 6; label: 5'-32P on top strand; fork: 30 bp duplex, 3' T20 and 5' C8 arms
[7] = target: T1, E1FL (full-length E1); test: hydroxyl radical footprinting; 10-fold excess unlabelled T18 competitor; similar protection to top strand; settings: protein: recombinant; tags: GST fusion, tag cleaved with thrombin and removed; chain copies: 6; label: 3'-32P on bottom strand; fork: 3' T20 and 5' C8 arms; 29 bp as printed before labelling

B1: E1 helicase domain (residues 299-605) (domain or fragment)
chain: QTTLNESLQTEKFDFGTMVQWAYDHKYAEESKIAYEYALAAGSDSNARAFLATNSQAKHVKDCATMVRHYLRAETQALSMPAYIKARCKLATGEGSWKSILTFFNYQNIELITFINALKLWLKGIPKKNCLAFIGPPNTGKSMLCNSLIHFLGGSVLSFANHKSHFWLASLADTRAALVDDATHACWRYFDTYLRNALDGYPVSIDRKHKAAVQIKAPPLLVTSNIDVQAEDRYLYLHSRVQTFRFEQPCTDESGEQPFNITDADWKSFFVRLWGRLDLIDEEEDSEEDGDSMRTFTCSARNTNAVD
- binding result [1]: binds

Binder: TTTTTTTTTTTTTTTTTTTTTTTTTTTTTT (ssDNA) [ssDNA T30]
- binding result [2]: binds

B2: RFJ 10 bp fork, 3' T20 and 5' C10 (dsDNA)
DNA 1: CCTCAGCGCGTTTTTTTTTTTTTTTTTTTT
DNA 2: CCCCCCCCCCCGCGCTGAGG
- binding result [3]: binds

B3: RFJ 10 bp fork, 5' dsDNA biotin (dsDNA)
DNA 1: B2 DNA 1
DNA 2: CCCCCCCCCCCGCGCTGAGG
- binding result [4]: binds

B4: full length BPV-1 E1 helicase (enzyme)
chain: MANDKGSNWDSGLGCSYLLTEAECESDKENEEPGAGVELSVESDRYDSQDEDFVDNASVFQGNHLEVFQALEKKAGEEQILNLKRKVLGSSQNSSGSEASETPVKRRKSGAKRRLFAENEANRVLTPLQVQGEGEGRQELNEEQAISHLHLQLVKSKNATVFKLGLFKSLFLCSFHDITRLFKNDKTTNQQWVLAVFGLAEVFFEASFELLKKQCSFLQMQKRSHEGGTCAVYLICFNTAKSRETVRNLMANTLNVREECLMLQPAKIRGLSAALFWFKSSLSPATLKHGALPEWIRAQTTLNESLQTEKFDFGTMVQWAYDHKYAEESKIAYEYALAAGSDSNARAFLATNSQAKHVKDCATMVRHYLRAETQALSMPAYIKARCKLATGEGSWKSILTFFNYQNIELITFINALKLWLKGIPKKNCLAFIGPPNTGKSMLCNSLIHFLGGSVLSFANHKSHFWLASLADTRAALVDDATHACWRYFDTYLRNALDGYPVSIDRKHKAAVQIKAPPLLVTSNIDVQAEDRYLYLHSRVQTFRFEQPCTDESGEQPFNITDADWKSFFVRLWGRLDLIDEEEDSEEDGDSMRTFTCSARNTNAVD
- stoichiometry N [1]: 6

B5: RFJ 10 bp fork, 5' dsDNA biotin and 5' ssDNA digoxigenin (dsDNA)
DNA 1: B2 DNA 1
DNA 2: CCCCCCCCCCCGCGCTGAGG
- binding result [5]: binds

B6: 30 bp fork, 3' T20 and 5' C8, top strand labelled (dsDNA)
DNA 1: GGCTTGTATTTCACACCGCACCTCAGCGCGTTTTTTTTTTTTTTTTTTTT
DNA 2: CCCCCCCCCGCGCTGAGGTGCGGTGTGAAATACAAGCC
- binding result [6]: binds

B7: 30 bp fork, 3' T20 and 5' C8, bottom strand labelled (dsDNA)
DNA 1: B6 DNA 1
DNA 2: CCCCCCCCCGCGCTGAGGTGCGGTGTGAAATACAAG
- binding result [7]: binds
